{
  "source": "patent US5458874A",
  "about": "“Method of increasing monocyte chemotaxis with CAP37 and monocyte chemotactic portions thereof” (Emory University, priority 1992, dated 1995)",
  "molecules": {"B1": {"name": "CAP37: granule-associated cationic protein (mol. wt. 37,000 daltons) from human PMN, 222 amino acid mature protein (protein)", "chain": "IVGGRKARPRQFPFLASIQNQGRHFCGGALIHARFVMTAASCFQSQNPGVSTVVLGAYDLRRRERQSRQTFSISSMSENGYDPQQNLNDLMLLQLDREANLTSSVTILPLPLQNATVEAGTRCQVAGWGSQRSGGRLSRFPRFVNVTVTPEDQCRPNNVCTGVLTRRGGICNGDGGTPLVCEGLAHGVASFSLGPCGRGPDFFTRVALFRDWIDGVLNNPGP"}},
  "key": {"Re LPS from Salmonella": {"test_system": "Re LPS from Salmonella", "assay": "Neutralization of LPS activity, limulus amebocyte lysate (LAL) assay, Re LPS", "format": "biochemical", "description": "Further, the neutralization of LPS activity, as assayed by the limulus amebocyte lysate (LAL) assay, by CAP37 was measured. CAP37 was diluted to the desired concentrations (from 6.2 ng/ml to 500 ng/ml) in geys buffered saline pH 7 (GIBCO). To this wild type LPS (RIBI IMMUNOCHEM) or Re LPS from Salmonella (David Morrison, Kansas Medical Center) was added so that the final concentrations were 0.1, 0.5, 1.0 and 2.0 ng/ml LPS. The tubes were incubated at 37° C. for between 30 to 60 minutes and then assayed in the chromogenic LAL assay, using polymyxin E as a control.\nAs discussed in Example 11, peptides can be screened for lipopolysaccharide neutralizing capacity using the LAL assay also. The CAP37 peptide was diluted to the desired concentrations (from 125 ng/ml to 4000 ng/ml) in geys buffered saline pH 7 (GIBCO). To this is added the wild type LPS (RIBI IMMUNOCHEM) or Re LPS from Salmonella (David Morrison, Kansas Medical Center) so that the final concentration is 0.1, 0.5, and 1.0 ng/ml LPS. The tubes were incubated at 37° C. for between 30 to 60 minutes and then assayed in the chromogenic LAL assay."}, "PMN": {"test_system": "PMN", "assay": "PMN chemotaxis, modified Boyden chamber technique", "format": "cell-based, human", "conditions": "range employed in these experiments", "description": "(§1) Chemotaxis was measured using the modified Boyden chamber technique (Snyderman et al.). The leading front method (Zigmond et al.) was used to assess migration of monocytes and lymphocytes through a 8 μm filter (Millipore Corporation, Bedford, Mass.). PMN chemotaxis was measured using a 3 μm filter (Millipore). The purified CAP37 protein (Example 1) used in chemotaxis assays were endotoxin-free as determined by the Limulus Amoebocyte Lysate Assay (Whittaker Bioproducts, Inc., Walkersville, Md.). The dilutions of CAP37 and N-formyl-methionyl-leucyl-phenylalanine (FMLP) were made in Geys buffer (Gibco) containing 2% endotoxin-free bovine serum albumin (BSA). Geys buffer containing 2% BSA served as the negative control, and a […] solution of FMLP as the positive control.\n(§2) The chambers were incubated in a humidified atmosphere (6.2% CO2) for 2 hours when testing monocytes and lymphocytes, and for 30 minutes when testing PMNs. The filters were then removed and processed as previously described (Snyderman et al.). The cells were viewed using oil immersion and the distance the cells had migrated into the filter was determined over five different fields on the same slide (Zigmond et al.). Triplicate assays were performed for each experimental point."}, "rabbit PMN": {"test_system": "rabbit PMN", "assay": "Rabbit PMN chemotaxis", "format": "cell-based", "description": "as §1, §2"}, "rabbit monocytes": {"test_system": "rabbit monocytes", "assay": "Rabbit monocyte chemotaxis", "format": "cell-based", "conditions": "1000 ng/ml (2.7×10^-8 M)", "description": "Peripheral blood mononuclear cells from adult female rabbits, were separated on a 61% PERCOLL (Pharmacia) gradient (Chambers et al.). This technique separated the mononuclear cells from the RBC and PMNs. No further separation of monocytes from lymphocytes was undertaken with the rabbit blood.\nas §1\nas §2, with “The filters were then removed and processed as previously described (Snyderman et al.).” left out, “Triplicate assays were performed for each experimental point.” left out"}, "monocytes": {"test_system": "monocytes", "assay": "Checkerboard assay (chemokinesis)", "format": "cell-based, human"}, "Salmonella LT2": {"test_system": "Salmonella LT2", "conditions": "(Shafer, 1986); cited from earlier work"}, "lymphocytes": {"test_system": "lymphocytes", "assay": "Lymphocyte chemotaxis, modified Boyden chamber technique", "format": "cell-based, human", "conditions": "range employed in these experiments", "description": "as §1, §2"}, "monocytes/macrophages": {"test_system": "monocytes/macrophages", "assay": "In vivo chemotactic assay, intraperitoneal injection, peritoneal exudate cells", "set-up": "species or system BALB/c mice", "conditions": "for % PMN / % monocytes: i.p., mice, peritoneal exudate", "description": "Female BALB/c mice (6-8 weeks) (Jackson Laboratory, Bar Harbor, […].) were injected intraperitoneally (i.p.) with 100 ng CAP37 (purified according to the method of the invention) per mouse in 2 ml RPMI-1640 serum-free medium (Mediatech). A control group of mice were injected i.p. with 2 ml brewers thioglycollate (4% w/v) (Difco Laboratories), a known stimulator of inflammatory cells whose action is well documented. A second control group of mice were injected j.p. with 2 ml of RPMI-1640 alone.\nAt 6, 24, 48 and 72 hours following these i.p. injections, four mice in each group were sacrificed by CO2 anesthesia. Ten ml sterile medium was injected into the peritoneal cavity of each mouse and the abdominal area gently massaged to dislodge the exudate cells. The medium containing the exudate cells was then aspirated from the peritoneal cavity using a 19 gauge needle attached to a syringe. The total number of cells in the peritoneal exudate was determined by counting the cells on a COULTER COUNTER (Coulter Electronics, Hialeah, Fla.: The operation of the COULTER COUNTER is based on electrical conductivity difference between particles and common diluent. Particles act as insulators, diluents as good conductors. The particles, suspended in an electrolyte, are forced through a small aperture through which an electrical current path has been established. As each particle displaces electrolyte in the aperture, a pulse essentially proportional to the particle volume is produced. Thus a 3-dimensional particle volume response is the basis for all sizing, regardless of position or orientation of the particle in solution.) One hundred μl of the peritoneal exudate was cytocentrifuged onto a glass slide and the cells stained with Wright's stain. A differential count of the cells was made by counting the number of monocytes, lymphocytes, neutrophils, basophils and eosinoplils per hundred consecutive cells. These experiments were performed to determine the time course of migration of neutrophils, monocytes, lymphocytes and other cells into the peritoneal cavity, in response to an i.p. injection of CAP37."}},
  "note": "“Also recorded” adds a separate entry of the source.",
  "data": [
    {"molecule": "B1", "values": [
      {"measurement": "neutralization of Re LPS activity (LAL assay)", "setting": "Re LPS from Salmonella", "result": "significantly neutralized LPS activity"},
      {"measurement": "effect on PMN chemotaxis", "setting": "PMN", "result": "did not have any effect"},
      {"measurement": "chemotactic response of rabbit PMN", "setting": "rabbit PMN", "result": "did not show a chemotactic response"},
      {"measurement": "chemotactic for rabbit monocytes", "setting": "rabbit monocytes", "result": "chemotactic"},
      {"measurement": "chemokinetic effect on monocytes", "setting": "monocytes", "result": "some chemokinetic effect"},
      {"measurement": "% survival with CAP 37", "setting": "Salmonella LT2", "result": 43, "unit": "%"},
      {"measurement": "effect on lymphocyte chemotaxis", "setting": "lymphocytes", "result": "did not have any effect"},
      {"measurement": "migration of cells into the peritoneal cavity (in words)", "setting": "monocytes/macrophages; 100 ng CAP37 per mouse i.p.", "result": "moderately increased the overall numbers of cells; also recorded: potent monocyte chemoattractant capacity"},
      {"measurement": "time at which monocytes appeared in the peritoneal cavity", "setting": "monocytes/macrophages; 100 ng CAP37 per mouse i.p.", "result": 24, "unit": "h"},
      {"measurement": "% PMN", "setting": "monocytes/macrophages; 6 hours post injection", "result": 65, "unit": "%"},
      {"measurement": "% monocytes", "setting": "monocytes/macrophages; 6 hours post injection", "result": 7, "unit": "%"},
      {"measurement": "% PMN", "setting": "monocytes/macrophages; 24 hours post injection", "result": "dramatic reduction in neutrophils"},
      {"measurement": "% monocytes", "setting": "monocytes/macrophages; 24 hours post injection", "result": 27, "unit": "%"},
      {"measurement": "% PMN", "setting": "monocytes/macrophages; 24 hours post injection, listed as CAP 37", "result": 26, "unit": "%"},
      {"measurement": "% PMN", "setting": "monocytes/macrophages; 48 hours post injection", "result": 4, "unit": "%"},
      {"measurement": "% monocytes", "setting": "monocytes/macrophages; 48 hours post injection", "result": 48, "unit": "%"},
      {"measurement": "% PMN", "setting": "monocytes/macrophages; 72 hours post injection", "result": 3, "unit": "%"},
      {"measurement": "% monocytes", "setting": "monocytes/macrophages; 72 hours post injection", "result": 55, "unit": "%"}
    ]}
  ]
}
